The results in this text go back to publication PMC4038614.

For assay [1], the target named is Ly49H (B6 allele), endogenous on splenic NK cells (mouse (endogenous in splenic NK cells)) (UniProt Q60682).
Assay [2] deals with Ly49C^B6 expressed on BWZ.36 cells (BWZ-Ly49C) (mouse (B6)) (UniProt Q64329). As to the kind of experiment: flow cytometry on cells; association time course: BWZ transfectants with saturating m157-Fc for 30 sec/1 min to 40 min at 4°C; MFI at 40 min = 100%. For orientation: In flow cytometry, cells or beads pass a laser one at a time.
UniProt Q64329, sequence (Q64329 whole entry): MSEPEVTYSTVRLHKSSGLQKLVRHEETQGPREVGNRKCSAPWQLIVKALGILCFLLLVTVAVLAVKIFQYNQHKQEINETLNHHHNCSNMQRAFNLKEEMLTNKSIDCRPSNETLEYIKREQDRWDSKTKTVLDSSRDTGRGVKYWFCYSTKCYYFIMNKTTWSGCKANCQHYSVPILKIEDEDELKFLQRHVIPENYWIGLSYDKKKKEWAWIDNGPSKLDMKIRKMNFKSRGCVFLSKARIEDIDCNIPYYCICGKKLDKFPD
Assay [3] has as its target Ly49H^B6 expressed on BWZ.36 cells (BWZ-Ly49H) (mouse (B6)) (UniProt Q60682). The description is as above.
The target of assay [4] is Ly49C^B6 expressed on BWZ.36 cells (BWZ-Ly49C) (mouse (B6)) (UniProt Q64329). In words: flow cytometry on cells; dissociation: BWZ transfectants labelled with saturating m157-Fc at 4°C, washed, incubated at 37°C for 5 to 90 min with excess anti-m157 antibody 6H121 to prevent re-binding; MFI at 0 min = 100%.
In assay [5] the target is Ly49H^B6 expressed on BWZ.36 cells (BWZ-Ly49H) (mouse (B6)) (UniProt Q60682). The description is as above.

In assay [1], “m157^G1F-Fc soluble fusion protein (Fc fusion)” yielded an IFN-γ production of Ly49H^+,C^- B6 NK cells exposed to RMA cells expressing m157^G1F; abolished by blocking anti-Ly49H 3D10 of 15 % IFN-γ^+ and a degranulation (LAMP1^+) of Ly49H^+,C^- B6 NK cells exposed to RMA cells expressing m157^G1F; abolished by blocking anti-Ly49H 3D10 of 40 % LAMP1^+. In assay [2], this substance registered a time to 50% of maximal binding of 5 min. Also, the time to 50% of maximal binding in assay [3] was found to be 7 min. In assay [4], this substance displayed a time to 50% dissociation of 20 min. In addition, in assay [5], the percent still bound after 90 min was > 50%.
